43 substances from patent publication US10098938B2, “Peptides and combination of peptides for use in immunotherapy against various cancers” (immatics biotechnologies GmbH, priority 2015, dated 2018) can be followed below.

The target in one assay is HLA-A*02 (Homo sapiens, UniProt P04439, D140Y/D185E/D98H/E176V/E277Q/G131W/G231S/I119V/I121R/I166T/I218V/L300P/N151K/N90K/P208A/P217A/Q86G/Q94H/R138H/R169H). In words: MHC binding assay, UV-ligand exchange with β2m ELISA, HLA-A*02. The following applies: binding to HLA-A*02 ranged by peptide exchange yield. The source says: (§1) Candidate peptides for T cell based therapies according to the present invention were further tested for their MHC binding capacity (affinity). The individual peptide-MHC complexes were produced by UV-ligand exchange, where a UV-sensitive peptide is cleaved upon UV-irradiation, and exchanged with the peptide of interest as analyzed. Only peptide candidates that can effectively bind and stabilize the peptide-receptive MHC molecules prevent dissociation of the MHC complexes. To determine the yield of the exchange reaction, an ELISA was performed based on the detection of the light chain (β2m) of stabilized MHC complexes. The assay was performed as generally described in Rodenko et al. (Rodenko et al., 2006).
(§2) 96 well MAXISorp plates (NUNC) were coated over night with 2 ug/ml streptavidin in PBS at room temperature, washed 4× and blocked for 1 h at 37° C. in 2% BSA containing blocking buffer. Refolded HLA-A*02:01/MLA-001 monomers served as standards, covering the range of 15-500 ng/ml. Peptide-MHC monomers of the UV-exchange reaction were diluted 100 fold in blocking buffer. Samples were incubated for 1 h at 37° C., washed four times, incubated with 2 ug/ml HRP conjugated anti-β2m for 1 h at 37° C., washed again and detected with TMB solution that is stopped with […]. Absorption was measured at 450 nm. Candidate peptides that show a high exchange yield (preferably higher than 50%, most preferred higher than 75%) are generally preferred for a generation and production of antibodies or fragments thereof, and/or T cell receptors or fragments thereof, as they show sufficient avidity to the MHC molecules and prevent dissociation of the MHC complexes.
For orientation: In an ELISA, binding on a coated surface is turned into a signal by an enzyme label.

Another assay deals with CD8+ T cells. Put plainly: In vitro immunogenicity: T-cell priming with aAPCs loaded with peptide/MHC and anti-CD28, pMHC multimer readout. The conditions noted are these: in vitro immunogenicity of HLA class I peptides; for Wells positive [%]: pMHC multimer readout after T-cell priming; for Wells: CD8+ T cells of healthy donors, three stimulation cycles, multimer staining. Format: cell-based, human. The source says: In order to obtain information regarding the immunogenicity of the TUMAPs of the present invention, the inventors performed investigations using an in vitro T-cell priming assay based on repeated stimulations of CD8+ T cells with artificial antigen presenting cells (aAPCs) loaded with peptide/MHC complexes and anti-CD28 antibody.
In order to perform in vitro stimulations by artificial antigen presenting cells loaded with peptide-MHC complex (pMHC) and anti-CD28 antibody, the inventors first isolated CD8+ T cells from fresh HLA-A*02 leukapheresis products via positive selection using CD8 microbeads (Miltenyi Biotec, Bergisch-Gladbach, Germany) of healthy donors obtained from the University clinics Mannheim, Germany, after informed consent.
PBMCs and isolated CD8+ lymphocytes were incubated in T-cell medium (TCM) until use consisting of RPMI-Glutamax (Invitrogen, Karlsruhe, Germany) supplemented with 10% heat inactivated human AB serum (PAN-Biotech, Aidenbach, Germany), 100 U/ml Penicillin/100 μg/ml Streptomycin (Cambrex, Cologne, Germany), 1 mM sodium pyruvate (CC Pro, Oberdorla, Germany), 20 μg/ml Gentamycin (Cambrex). 2.5 ng/ml IL7 (PromoCell, Heidelberg, Germany) and 10 U/ml IL-2 (Novartis Pharma, Nürnberg, Germany) were also added to the TCM at this step.
Generation of pMHC/anti-CD28 coated beads, T-cell stimulations and readout was performed in a highly defined in vitro system using four different pMHC molecules per stimulation condition and 8 different pMHC molecules per readout condition.
The purified co-stimulatory mouse IgG2a anti human CD28 Ab 9.3 (Jung et al., 1987) was chemically biotinylated using Sulfo-N-hydroxysuccinimidobiotin as recommended by the manufacturer (Perbio, Bonn, Germany). Beads used were 5.6 μm diameter streptavidin coated polystyrene particles (Bangs Laboratories, Illinois, USA).
pMHC used for positive and negative control stimulations were A*0201/MLA-001 (peptide […] (SEQ ID NO. 303) from modified Melan-A/MART-1) and A*0201/DDX5-001 ([…] from DDX5, SEQ ID NO. 304), respectively.
800.000 beads/200 μl were coated in 96-well plates in the presence of 4×12.5 ng different biotin-pMHC, washed and 600 ng biotin anti-CD28 were added subsequently in a volume of 200 μl. Stimulations were initiated in 96-well plates by co-incubating […] CD8+ T cells with 2×10^5 washed coated beads in 200 μl TCM supplemented with 5 ng/ml IL-12 (PromoCell) for 3 days at 37° C. Half of the medium was then exchanged by fresh TCM supplemented with 80 U/ml IL-2 and incubating was continued for 4 days at 37° C. This stimulation cycle was performed for a total of three times. For the pMHC multimer readout using 8 different pMHC molecules per condition, a two-dimensional combinatorial coding approach was used as previously described (Andersen et al., 2012) with minor modifications encompassing coupling to 5 different fluorochromes. Finally, multimeric analyses were performed by staining the cells with Live/dead near IR dye (Invitrogen, Karlsruhe, Germany), CD8-FITC antibody clone SK1 (BD, Heidelberg, Germany) and fluorescent pMHC multimers. For analysis, a BD LSRII SORP cytometer equipped with appropriate lasers and filters was used. Peptide specific cells were calculated as percentage of total CD8+ cells. Evaluation of multimeric analysis was done using the FlowJo software (Tree Star, Oregon, USA). In vitro priming of specific multimer+ CD8+ lymphocytes was detected by comparing to negative control stimulations.

For a further assay, the system named is HLA-A*24. In words: MHC binding assay, UV-ligand exchange with β2m ELISA, HLA-A*24. The conditions noted are these: binding to HLA-A*24 ranged by peptide exchange yield. On the set-up: species or system human.
Description: as §1, §2

Consider “84 (ALCPRIHEV; listed as Homo sapiens) [compound 84]”, for which, in the assay with HLA-A*02, the Peptide exchange result is given as “++++ (> = 75% = ++++)”.
On the same count and under the same terms, the result for “120 (VTPVTVSAV; listed as Homo sapiens) [compound 120]” reads “+ (<20% = +)”.
Take “163 (DYLKGLASF; listed as Homo sapiens) [compound 163]”: in the assay on CD8+ T cells, the “Wells positive [%]” value is recorded as “+ (<20% = +)”. The Peptide exchange entry in the assay with HLA-A*24 is “++++ (> = 75% = ++++)”.
With “258 (LLSERFINV; listed as Homo sapiens) [compound 258]”, the Peptide exchange entry in the assay with HLA-A*02 was “++++ (> = 75% = ++++)”.
Consider “257 (GLYTDPCGV; listed as Homo sapiens) [compound 257]”, for which the Peptide exchange result in the assay with HLA-A*02 is recorded as “++++ (> = 75% = ++++)”.
For the substance “14 (ILAKDLFEI; listed as Homo sapiens) [compound 14]”, the Peptide exchange entry with HLA-A*02 is recorded as “++++ (> = 75% = ++++)”.
On the same count and under the same terms, with “126 (QMFQYFITV; listed as Homo sapiens) [compound 126]” the entry was “++++ (> = 75% = ++++)”.
Same read-out and setting: the result for “129 (RLQDILWFL; listed as Homo sapiens) [compound 129]” reads “++++ (> = 75% = ++++)”.
For “165 (DYTTWTALL; listed as Homo sapiens) [compound 165]”, the “Wells positive [%]” value in the assay on CD8+ T cells was “+ (<20% = +)”. Further, in the assay with HLA-A*24, the Peptide exchange entry is “++++ (> = 75% = ++++)”.
Consider “100 (ALLGMIIVGV; listed as Homo sapiens) [compound 100]”, for which the Peptide exchange result in the assay with HLA-A*02 is recorded as “+ (<20% = +)”.
For “159 (LYNKGFIYL; listed as Homo sapiens) [compound 159]”, the “Wells positive [%]” value in the assay on CD8+ T cells was “++++ (> = 70% = ++++)”. For the same substance, the Peptide exchange result with HLA-A*24 is given as “++++ (> = 75% = ++++)”.
On to “158 (HYSQELSLLYL; listed as Homo sapiens) [compound 158]”, for which, in the assay with CD8+ T cells, the “Wells positive [%]” value is reported as “+ (<20% = +)”. Also, the Peptide exchange result in the assay on HLA-A*24 is “++++ (> = 75% = ++++)”.
Consider “95 (GLLGSLFFL; listed as Homo sapiens) [compound 95]”, for which the Peptide exchange result with HLA-A*02 was “++++ (> = 75% = ++++)”.
The same measure, in the same setting: the result for “245 (SLLDLPLSL; listed as Homo sapiens) [compound 245]” reads “++++ (> = 75% = ++++)”; that for “42 (LLDSVSRL; listed as Homo sapiens) [compound 42]”, “+ (<20% = +)”.
For “12 (GLLPLLHRA; listed as Homo sapiens) [compound 12]”, in the assay on CD8+ T cells, the “Wells positive [%]” value is on record as “++++ (> = 70% = ++++)”. Moreover, the Peptide exchange result in the assay with HLA-A*02 was “++++ (> = 75% = ++++)”.
For the substance “1 (LLYPEPWSV; listed as Homo sapiens) [compound 1]”, the Peptide exchange result in the assay with HLA-A*02 is listed as “++++ (> = 75% = ++++)”.
The same measure, in the same setting: the result for “82 (FIFDEAEKL; listed as Homo sapiens) [compound 82]” reads “+ (<20% = +)”; that for “147 (YLMDDTVEI; listed as Homo sapiens) [compound 147]”, “++++ (> = 75% = ++++)”.
On the same count and under the same terms, with “34 (FLLATEVVTV; listed as Homo sapiens) [compound 34]” the entry was “++++ (> = 75% = ++++)”; with “92 (GLLFSLRSV; listed as Homo sapiens) [compound 92]”, “++++ (> = 75% = ++++)”.
As for “125 (SLADYEHFV; listed as Homo sapiens) [compound 125]”, the Peptide exchange entry with HLA-A*02 is “++++ (> = 75% = ++++)”.
As for “112 (SLGKFTFDV; listed as Homo sapiens) [compound 112]”, the Peptide exchange entry in the assay with HLA-A*02 is listed as “++++ (> = 75% = ++++)”.
As to “167 (NYINRILKL; listed as Homo sapiens) [compound 167]”, in the assay with CD8+ T cells, the “Wells positive [%]” value is “+ (<20% = +)”. Also, the Peptide exchange entry in the assay on HLA-A*24 is recorded as “++++ (> = 75% = ++++)”.
Turning to “141 (FLDKVLVAA; listed as Homo sapiens) [compound 141]”, the “Wells positive [%]” value in the assay on CD8+ T cells is given as “+ (<20% = +)”.
Same read-out and setting: the result for “90 (FLQDLEQRL; listed as Homo sapiens) [compound 90]” reads “+ (<20% = +)”.
For the substance “16 (YTLDIPVLFGV; listed as Homo sapiens) [compound 16]”, in the assay with HLA-A*02, the Peptide exchange result is listed as “++++ (> = 75% = ++++)”.
For “204 (TYELRYFQI; listed as Homo sapiens) [compound 204]”, the “Wells positive [%]” value in the assay on CD8+ T cells is on record as “+ (<20% = +)”. Moreover, in the assay with HLA-A*24, the Peptide exchange result was “++++ (> = 75% = ++++)”.
On to “293 (FLVDGSWSI; listed as Homo sapiens) [compound 293]”, for which the Wells entry in the assay on CD8+ T cells was “+ (<20% = +)”.
Turning to “218 (YYKSTSSAF; listed as Homo sapiens) [compound 218]”, the “Wells positive [%]” value in the assay on CD8+ T cells was “+ (<20% = +)”.
For “133 (ALLPRLHQL; listed as Homo sapiens) [compound 133]”, in the assay with HLA-A*02, the Peptide exchange result is listed as “++++ (> = 75% = ++++)”.
Turning to “196 (LYIDRPLPYL; listed as Homo sapiens) [compound 196]”, in the assay on CD8+ T cells, the “Wells positive [%]” value is “++++ (> = 70% = ++++)”.
With “248 (YLDRFLAGV; listed as Homo sapiens) [compound 248]”, the Peptide exchange result in the assay with HLA-A*02 was “++++ (> = 75% = ++++)”.
As for “51 (LLFSRLCGA; listed as Homo sapiens) [compound 51]”, the Peptide exchange result with HLA-A*02 is “++++ (> = 75% = ++++)”.
As to “31 (TITETTVEV; listed as Homo sapiens) [compound 31]”, the “Wells positive [%]” value in the assay with CD8+ T cells is listed as “+ (<20% = +)”.
The same measure, in the same setting: with “207 (AYVVFVSTL; listed as Homo sapiens) [compound 207]” the entry was “+ (<20% = +)”.
Turning to “153 (FISERVEVV; listed as Homo sapiens) [compound 153]”, the Peptide exchange result with HLA-A*02 is on record as “++++ (> = 75% = ++++)”.
With “26 (ALQEELTEL; listed as Homo sapiens) [compound 26]”, in the assay on CD8+ T cells, the “Wells positive [%]” value is on record as “+ (<20% = +)”.
Take “3 (KLEENGDLYL; listed as Homo sapiens) [compound 3]”: in the assay with HLA-A*02, the Peptide exchange result was “++++ (> = 75% = ++++)”.
For the substance “301 (AYKPGALTF; listed as Homo sapiens) [compound 301]”, the Wells entry in the assay on CD8+ T cells is on record as “+ (<20% = +)”.
Take “229 (AILAHLNTV; listed as Homo sapiens) [compound 229]”: the Peptide exchange entry in the assay with HLA-A*02 is given as “++++ (> = 75% = ++++)”.
In the case of “149 (ILNTHITEL; listed as Homo sapiens) [compound 149]”, the “Wells positive [%]” value with CD8+ T cells is listed as “+ (<20% = +)”.
Still for that read-out and setting: the result for “268 (QYLGQIQHI; listed as Homo sapiens) [compound 268]” reads “+ (<20% = +)”.
